Literature values, collected in article PMC5347372.

Target: alpha-factor (Saccharomyces cerevisiae) (UniProt P01149)

Kd: 7 nM
Substance: Ste2 (from UniProt D6VTK4)
